Tests used:
human iPSC-CFs = experiment: In vitro wound-healing assay, iPSC-CFs; type: cell-based; settings: 25 ng/ml, 24-hour observation
Description: In vitro wound-healing assay. The migration of human iPSC-CFs and primary CFs was determined using a Cytoselect™ 24-Well Wound Healing Assay Kit (CBA-120, Cell Biolabs). Briefly, after confluent monolayers of CFs were formed, cells were synchronized in a low serum medium (0.5% FBS) for 24 hrs. After the wound-generating scaffold was removed from each well, cells were washed in PBS to remove residual cells in the wounded area. Cells were treated with vehicle or PDGF-BB (25 ng/ml), and images were captured using a light microscope in identical areas at baseline, 12 hrs, and 24 hrs post-treatment. The cell-free areas at each time point were measured by Image-Pro Plus (version 6.0, Media Cybernetics). For quantification purposes, the wound area generated at 0 hr was set as S0, the uncovered areas captured at 12 hrs, and 24 hrs were recorded as Si (i=12 or 24). The wound closure rate was then calculated by the following equation: wound closure rate

primary CFs = experiment: In vitro wound-healing assay, primary CFs; type: cell-based, human; settings: 25 ng/ml, 24-hour observation
Description: Human primary skin, cardiac, lung, bladder fibroblast, and brain pericyte cultures. Human primary cardiac fibroblasts were isolated and cultured as follows: a piece of fresh right atrial biopsy was weighed, minced into small pieces (1-2 mm^3), and digested in 6-well peri-dishes as described. Human primary cardiac fibroblasts were grown and maintained in a fibroblast growth medium (C-23025, Promocell) supplemented with 1% penicillin-streptomycin (15140-122, Gibco) in a humidified atmosphere (95% air, 5% CO2) at 37° C. The medium was renewed every 2-3 days. Cells were passaged using standard trypsinization techniques at 80-90% confluency. The same protocol was also used to isolate and culture fibroblasts from human skin and lung tissues. Primary bladder fibroblasts were purchased from Lifeline (FC-0050) and maintained in the same fibroblast growth medium. […]
In vitro wound-healing assay. The migration of human iPSC-CFs and primary CFs was determined using a Cytoselect™ 24-Well Wound Healing Assay Kit (CBA-120, Cell Biolabs). […] The cell-free areas at each time point were measured by Image-Pro Plus (version 6.0, Media Cybernetics). For quantification purposes, the wound area generated at 0 hr was set as S0, the uncovered areas captured at 12 hrs, and 24 hrs were recorded as Si (i=12 or 24). The wound closure rate was then calculated by the following equation: wound closure rate

B1: platelet derived growth factor-BB: platelet derived growth factor-BB, migration stimulus (protein, UniProt P01127 82-190, looked up)
Platelet-derived growth …: SLGSLTIAEPAMIAECKTRTEVFEISRRLIDRTNANFLVWPPCVEVQRCSGCCNNRNVQCRPTQVQLRPVQVRKIEIVRKKPIFKKATVTLEDHLACKCETVAAARPVT
cell migration (wound closure) (human iPSC-CFs): induced cell migration
cell migration (wound closure) (primary CFs): induced cell migration

Source: patent US20220348877A1, “GENERATION OF QUIESCENT CARDIAC FIBROBLASTS FROM HUMAN INDUCED PLURIPOTENT STEM CELLS FOR IN VITRO MODELING OF CARDIAC FIBROSIS” (The Board of Trustees of the Leland Stanford Junior …, priority 2019, published 2022)
